# B1: N-acetyl-(S)-β-amino acid acylase: enzyme purified from Burkholderia sp. AJ110349, subunit about 41 kDa, SEQ. ID. NO. 10 (protein)
# chain: MDFCQMNDLASRKGRIQTVLGLIDPHELGPALMHEHLLIDLVPPKLAEDADHDQTEIDLCNCWKINYGQVPSLKNYRLDQKDVAVEELLEMRAAGGSAIVDLTTGGLKPDPQGLAQISREAGVHVVMGCGHYVHEYQDAANAHRSVDDFASEMIGQITEGAWGTQVRAGIIGEIGCQSPWTEQEKRVVRGALIAQQETGAALNIHPGRHAEQPQEVIDTIKSLGYPVERVIISHIDRTIFDDTRLLRLADSGCVIELDLFGWEQSAYPMSDIDMPNDGARLRMVRTLLDHGHAERVLISHDICTRTRLGRYGGHGYQHIFANVVPRMLRRDFTQDEIDTLLTRNPRRLLTFV
# modifications: Burkholderia sp.AJ110349
# notes: enzyme purified from Burkholderia sp; ID; NO; 10
# B2: N-acetyl-(R)-β-amino acid acylase: enzyme purified from Burkholderia sp. AJ110349, subunit about 84 kDa, SEQ. ID. NO. 8 (protein)
# chain: MITITGYSDVLSAGPGETVEFKVSSKSPHPFTAELVRVIHADPNPAGPGMRFEPLGQVFSGTFASFDKPLLPGSFARVSGVPAAGSAAGLVAGARIRPTALARGDQCVMSQWNTARHAGFALLVSERGLELRLGAGTGEPPVCVLCAARLEVRWYDVWFAIDTASNRIEVGVTEVDGSVAAPVRHRTLQMLDARWRAPHSDDAADLLIGALEDGAGRRAHFNGQIEAPFVADALPSPATPAATVEYAAPRASDFSTDALYAAWDFARGIDTLKIADTTPHARHGTLQNLPTRAVRSSAWNGRERCWRTAPAHYAAIHFHDDDLHDAGWSTDFAFTVPATLKSGAYAMRLSVDGATDYLPFYVRPELGRPGAPLVFVAATYTYQAYANYARGNFDAALRDKVGRWGAYPHNPDDHPEVGLATYNLHSDGSGVMFSSRLRPMLTMRPGFLTFDDSRGSGCRHYIADSHLLDWLEHEGFSFDVVTDDDLERFGAALLEPYAAVLTGTHPEYHTAATLDALAGYKRSGGNLAYLGGNGFYWRVGRSERVPGALEVRRTEGGVRAWAAEAGEYFHALDGEYGGLWRSSARTPQQLVGVGFSSQGPFEGSHYRVLDAARSQPGGSLLKDIAGPLFGGYGLSGGGAAGFELDSTEAADGTPANVIILARSESHSAAFGPALDALLSHTATRARKTPDTLIRSEIVYYETGYGGAVFSVGSITFCGALSHNDYRNDVSTLLRNVLIRFSRDRGAQAHAVPAVAHTEVD
# modifications: Burkholderia sp. AJ110349
# Experiment: N-acetyl-β-amino acid acylase activity and optical selectivity of purified enzymes and cell-free extracts
# Type: biochemical
# Details: 30° C.; for Specific activity: purified enzyme after Mono-Q, 10 mM N acetyl-(R,S)-β-Phe, 50 mM Tris-HCl (pH 7.6); for Optical specificity (β-Phe enantiomer produced): purified enzyme, N-acetyl-(R,S)-β-Phe, 30 minutes
# Method: 10 mM N acetyl-(R,S)-β-Phe, 50 mM Tris-HCl (pH 7.6), and a reaction solution containing a suitable enzyme sample were left standing from 15 minutes to 2 hours at 30° C., and then processed by boiling for 5 minutes to stop the reaction. The reaction solution was centrifuged. The supernatant was suitably diluted and then analyzed by HPLC. Acylase activity that produced 1 μmol of (R)-β-Phe or (S)-β-Phe per minute under these standard reaction conditions was defined as one unit. Activity producing (R)-β-Phe from N-acetyl-(R,S)-β-Phe will be referred to as N-acetyl-(R)-β-Phe acylase activity and activity producing (S)-β-Phe will be referred to as N-acetyl-(S)-β-Phe acylase activity hereinafter.
# (R)-β-Phe, (S)-β-Phe, N-acetyl-(R)-β-Phe, and N-acetyl-(S)-β-Phe were quantitatively analyzed. The column employed was an Inertsil ODS3 (0.46 cm in diameter, 5 cm) made by GL Science and a Chiralpak WH (0.46 cm in diameter, 25 cm) made by Daisel Chemical Industries, arranged consecutively in that order. The mobile phase was 0.25 mM CuSO4, 2 percent (v/v) acetonitrile. The flow rate was 1.5 mL/minute. The column temperature was 50° C. Detection was conducted with a UV detector at 210 nm. In this analysis, the above four compounds eluted out at different elution times. The elution sequence, in order of elution speed, was (S)-β-Phe, (R)-β-Phe, N-acetyl-(R)-β-Phe, and N-acetyl-(S)-β-Phe. The quantities were calculated from the peak area values relative to various standard products.
# An Inertsil Ph-3 (0.46 cm in diameter, 25 cm) column made by GL Science was employed. The mobile phase was 10 percent acetonitrile (adjusted to pH 3.0 with phosphoric acid). The temperature was 40° C. The flow rate was 1.0 mL/min. Detection was conducted under UV conditions of 210 nm and peak area values were calculated based on comparison with various standard racemic products.
# Optical selectivity was measured using the purified enzymes as enzyme sources. Reactions were conducted under the above enzyme conditions for a period of 30 minutes. The quantity of enzyme added was 4.6 μg/mL (N-acetyl-(R)-β-amino acid acylase) or 3.1 μg/mL (N-acetyl-(S)-β-amino acid acylase).
# The K83 strain obtained was precultured for 16 hours at 37° C. in LB medium containing 100 mg/L of ampicillin. A 1 mL quantity of the cultured bacterial cells was transferred to 50 mL of TB medium containing 100 mg/L of ampicillin and 1 mM of IPTG and cultured for 16 hours at 30° C. […] When the N-acetyl-β-amino acid acylase activity was measured under the separation conditions of N-acetyl-β-Phe and β-Phe, a value of 2.3 U/mg was obtained.
# JM109/ptrp4—3BR was cultured for 16 hours at 37° C. in LB medium containing 100 mg/L of ampicillin. […] The quantity of β-Phe produced was measured by HPLC. […]
molecule,measurement,value
B1,Specific activity,13.1 U/mg
same,Optical specificity (β-Phe enantiomer produced),Only the production of (S)-β-Phe was observed
B2,Specific activity,12.4 U/mg
same,Optical specificity (β-Phe enantiomer produced),only the production of (R)-β-Phe was observed

# Source: patent publication US7858348B2, “N-acetyl-(R,S)-beta-amino acid acylase gene” (Ajinomoto Co., Inc., priority 2006, dated 2010)
